# B1: Halo-tagged human cytomegalovirus immediate early 1 protein (hIE1) [human cytomegalovirus (HCMV)] / NanoLuciferase-tagged human promyelocytic leukemia protein (hPML) [human] (parent complex)
# chain 1: MESSAKRKMDPDNPDEGPSSKVPRPETPVTKATTFLQTMLRKEVNSQLSLGDPLFPELAEESLKTFEQVTEDCNENPEKDVLAELVKQIKVRVDMVRHRIKEHMLKKYTQTEEKFTGAFNMMGGCLQNALDILDKVHEPFEEMKCIGLTMQSMYENYIVPEDKREMWMACIKELHDVSKGAANKLGGALQAKARAKKDELRRKMMYMCYRNIEFFTKNSAFPKTTNGCSQAMAALQNLPQCSPDEIMAYAQKIFKILDEERDKVLTHIDHIFMDILTTCVETMCNEYKVTSDACMMTMYGGISLLSEFCRVLCCYVLEETSVMLAKRPLITKPEVISVMKRRIEEICMKVFAQYILGADPLRVCSPSVDDLRAIAEESDEEEAIVAYTLATAGVSSSDSLVSPPESPVPATIPLSSVIVAENSDQEESEQSDEEEEEGAQEEREDTVSVKSEPVSEIEEVAPEEEEDGAEEPTASGGKSTHPMVTRSKADQ
# chain 2: MEPAPARSPRPQQDPARPQEPTMPPPETPSEGRQPSPSPSPTERAPASEEEFQFLRCQQCQAEAKCPKLLPCLHTLCSGCLEASGMQCPICQAPWPLGADTPALDNVFFESLQRRLSVYRQIVDAQAVCTRCKESADFWCFECEQLLCAKCFEAHQWFLKHEARPLAELRNQSVREFLDGTRKTNNIFCSNPNHRTPTLTSIYCRGCSKPLCCSCALLDSSHSELKCDISAEIQQRQEELDAMTQALQEQDSAFGAVHAQMHAAVGQLGRARAETEELIRERVRQVVAHVRAQERELLEAVDARYQRDYEEMASRLGRLDAVLQRIRTGSALVQRMKCYASDQEVLDMHGFLRQALCRLRQEEPQSLQAAVRTDGFDEFKVRLQDLSSCITQGKDAAVSKKASPEAASTPRDPIDVDLPEEAERVKAQVQALGLAEAQPMAVVQSVPGAHPVPVYAFSIKGPSYGEDVSNTTTAQKRKCSQTQCPRKVIKMESEEGKEARLARSSPEQPRPSTSKAVSPPHLDGPPSPRSPVIGSEVFLPNSNHVASGAGEAEERVVVISSSEDSDAENSSSRELDDSSSESSDLQLEGPSTLRVLDENLADPQAEDRPLVFFDLKIDNETQKISQLAAVNRESKFRVVIQPEAFFSIYSKAVSLEVGLQHFLSFLSSMRRPILACYKLWGPGLPNFFRALEDINRLWEFQEAISGFLAALPLIRERVPGASSFKLKNLAQTYLARNMSERSAMAAVLAMRDLCRLLEVSPGPQLAQHVYPFSSLQCFASLQPLVQAAVLPRAEARLLALHNVSFMELLSAHRRDRQGGLKKYSRYLSLQTTTLPPAQPAFNLQALGTYFEGLLEGPALARAEGVSTPLAGRGLAERASQQS
# Variants of: B1
# Assay: NanoBRET; HEK293T cells transfected 24 h; 4 h incubation with Halo ligand; detection time 5 s at 618 nm and 448 nm; parent: 23; read off a plot
row,Variant,response [mBU]
1,chain 1 L174P,~1.2
